The target of the series is Rho WT (Escherichia coli) (UniProt P0AG30). The series can be described thus: EMSA. The following applies: 25 mM Tris-HCl pH 8.0, 5 mM MgCl2, 50 mM KCl, 1 mM DTT, 0.1 mg/ml BSA; 5 nM RNA, 0-50 nM Rho; 37 °C 5 min; 4% native gel at 4 °C. For orientation: A gel shift assay detects complexes by their altered migration in electrophoresis.

This is an account of results in paper PMC9160355.

Chain of Rho WT (Escherichia coli) (P0AG30 whole entry): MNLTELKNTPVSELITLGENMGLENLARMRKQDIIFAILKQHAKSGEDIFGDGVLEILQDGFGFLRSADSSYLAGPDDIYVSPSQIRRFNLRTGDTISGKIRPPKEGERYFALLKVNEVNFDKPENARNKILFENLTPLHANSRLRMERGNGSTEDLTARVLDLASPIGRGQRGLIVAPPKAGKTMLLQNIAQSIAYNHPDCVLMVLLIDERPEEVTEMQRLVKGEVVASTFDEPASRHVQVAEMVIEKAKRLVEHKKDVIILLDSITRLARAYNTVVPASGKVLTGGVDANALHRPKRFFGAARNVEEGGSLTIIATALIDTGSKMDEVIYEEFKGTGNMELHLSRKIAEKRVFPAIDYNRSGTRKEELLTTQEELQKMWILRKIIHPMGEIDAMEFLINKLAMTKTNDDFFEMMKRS

“GGGAGAGCUGCUUGUUUAAAGCUGACUGGUUUUAUUGGAAUAGUGAAAUAGUCAACAUCAUACAUUAUAACAUCAGUUACUUUUCCACAAAGAAACUAAUCCAUUUAAGCGAAUAUCUCUGCACCUAAUAGUUAUAAAUGCCAUUUAACAGCCAGUUAUAGUACCACUUGAAACUAUAUUACCAACAAUAAUUAAUAGCUUUCGUAACAAUUUCCUUAUCUUUAAUUUGUAUUUUGCUAAGAUUUAUCUUAUGCUCACAAGUCGUAUUUCCAGAGGGGGAUAG [gfcA terminator RNA]” came in with a dissociation constant Kd of 19.9 nM. With dmsA terminator RNA, the dissociation constant Kd is 16.1 nM. gfcA terminator RNA: the Kd stood at 19.9 nM. To gntX terminator RNA belongs 23.2 nM; to setC terminator RNA, 11.5 nM; to sodA terminator RNA, 9.99 nM. The substance trac (rac) terminator RNA showed a Kd of 3.08 nM. Consider yagM terminator RNA, for which the Kd worked out at 11.8 nM. In the case of ycfJ terminator RNA, the dissociation constant (Kd) turned out to be 18.5 nM.

ydeT terminator RNA: the equilibrium dissociation constant (Kd) was determined as 16.3 nM. Substance ydhQ terminator RNA displayed a Kd of 16.4 nM.

One may read the Kd as the constant that tells how readily two partners part at equilibrium. A lower Kd goes with higher affinity.
